Substitutions are numbered along the chain they refer to.
Experiments:
Experiment in all cases: cell_activity; CHO iGFFP reporter
[1] = target: T1, LOX 3-4m.1789 (artificial (I-CreI derived))
T1 chain: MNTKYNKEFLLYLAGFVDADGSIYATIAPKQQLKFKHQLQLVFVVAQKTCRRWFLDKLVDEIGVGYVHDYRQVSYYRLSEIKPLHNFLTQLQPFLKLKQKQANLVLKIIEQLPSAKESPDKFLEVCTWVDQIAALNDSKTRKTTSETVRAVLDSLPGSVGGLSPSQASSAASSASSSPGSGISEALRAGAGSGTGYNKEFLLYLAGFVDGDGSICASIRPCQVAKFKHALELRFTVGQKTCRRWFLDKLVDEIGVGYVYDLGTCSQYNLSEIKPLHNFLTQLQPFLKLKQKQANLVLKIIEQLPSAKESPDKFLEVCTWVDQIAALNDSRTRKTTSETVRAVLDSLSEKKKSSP
Text: (§1) A CHO cell reporter system (see WO/2012/167192, FIG. 3) was used to determine whether the engineered meganucleases generated in these studies could recognize and cleave the modified LOX 3-4 recognition sequences in Table 87. To perform the assay, a pair of CHO cell reporter lines were produced, which carried a non-functional Green Fluorescent Protein (GFP) gene expression cassette integrated into the genome of the cell. The GFP gene in each cell line was interrupted by a pair of recognition sequences such that intracellular cleavage of either recognition sequence by a meganuclease would stimulate a homologous recombination event resulting in a functional GFP gene. In both cell lines, one of the recognition sequences was derived from the LOX 3-4 recognition sequence (i.e., those sequences disclosed in Table 87), and the second recognition sequence was specifically recognized by a control meganuclease called “CHO 23/24.” CHO reporter cells comprising a recognition sequence derived from the LOX 3-4 recognition sequence and the CHO 23/24 recognition sequence are referred to herein as “test cells.”
(§2) Novel engineered meganucleases derived from the LOX 3-4x.109 meganuclease were prepared by making amino acid substitutions at one or more positions in the first subunit and one or more positions in the second subunit. These engineered meganucleases were then evaluated for cleavage of the LOX 3-4 recognition sequence modified to have a GCAA center sequence (SEQ ID NO: 267) in the CHO reporter assay according to Example 1.

[2] = target: T2, LOX 3-4m.1854 (artificial (I-CreI derived))
T2 chain: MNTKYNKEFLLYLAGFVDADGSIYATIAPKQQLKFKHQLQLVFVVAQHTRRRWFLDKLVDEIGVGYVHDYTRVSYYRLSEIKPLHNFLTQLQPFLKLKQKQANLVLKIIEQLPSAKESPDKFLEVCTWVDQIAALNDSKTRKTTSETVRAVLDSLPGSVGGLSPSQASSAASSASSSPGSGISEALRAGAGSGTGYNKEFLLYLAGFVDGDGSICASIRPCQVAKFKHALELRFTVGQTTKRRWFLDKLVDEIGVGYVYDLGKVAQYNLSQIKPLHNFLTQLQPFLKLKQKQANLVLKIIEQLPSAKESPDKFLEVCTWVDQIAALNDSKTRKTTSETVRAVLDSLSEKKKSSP
Text: as §1, §2

[3] = target: T3, LOX 3-4m.1875 (artificial (I-CreI derived))
T3 chain: T1 chain with A19G, C50R, Q72G, E80Q, G210A, G262H, T263K, C264I, S265A
Text: as §1, §2

[4] = target: T4, LOX 3-4m.1868 (artificial (I-CreI derived))
T4 chain: T1 chain with C50R, R71G, Q72P, V73T, E80Q, T263R, C264I, S265A
Text: as §1, §2

[5] = target: T5, LOX 3-4m.2248 (artificial (I-CreI derived))
T5 chain: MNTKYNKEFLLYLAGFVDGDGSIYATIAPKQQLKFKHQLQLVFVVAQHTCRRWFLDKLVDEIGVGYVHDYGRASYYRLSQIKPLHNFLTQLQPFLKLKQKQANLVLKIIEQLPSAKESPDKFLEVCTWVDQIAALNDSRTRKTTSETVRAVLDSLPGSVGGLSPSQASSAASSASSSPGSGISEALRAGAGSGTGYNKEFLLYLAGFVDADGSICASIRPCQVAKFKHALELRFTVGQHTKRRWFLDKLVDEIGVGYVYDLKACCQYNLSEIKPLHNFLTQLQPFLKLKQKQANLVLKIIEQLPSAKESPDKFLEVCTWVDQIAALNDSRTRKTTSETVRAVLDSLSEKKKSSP
Text: as §1
as §2, with “an ATAT” for “a GCAA”, “200)” for “267)”

[6] = target: T6, LOX 3-4m.2330 (artificial (I-CreI derived))
T6 chain: T5 chain with G19A, H48K, C50K, Q80E, A210G, H239A, K241R, K262R, A263N, E271Q
Text: as §1
as §2, with “an ATAT” for “a GCAA”, “200)” for “267)”

[7] = target: T7, LOX 3-4m.2329 (artificial (I-CreI derived))
T7 chain: T5 chain with G19A, H48T, C50R, A210G, H239T, K241N, K262G, A263G, E271Q
Text: as §1
as §2, with “an ATAT” for “a GCAA”, “200)” for “267)”

[8] = target: T8, LOX 3-4m.2313 (artificial (I-CreI derived))
T8 chain: T2 chain with H48A, R50K, T71G, V73A, E80Q, K139R, T239A, V264C, K330P
Text: as §1
as §2, with “an ATAT” for “a GCAA”, “200)” for “267)”

[9] = target: T9, LOX 3-4m.1486 (artificial (I-CreI derived))
T9 chain: T1 chain with C50T, R71G, Q72T, V73A, K139R, C241S, T263R, C264I
Text: as §1
as §2, with “an ATGA” for “a GCAA”, “220)” for “267)”

[10] = target: T10, LOX 3-4m.1421 (artificial (I-CreI derived))
T10 chain: T2 chain with H48K, R50T, T71G, V73A, E80Q, T239R, K241I, V250A, K263H, V264I
Text: as §1
as §2, with “an ATGA” for “a GCAA”, “220)” for “267)”

[11] = target: T11, LOX 3-4m.1500 (artificial (I-CreI derived))
T11 chain: T2 chain with H48K, T71G, R72S, V73S, E80Q, K139R, T239S, K241R, K263H, A265S
Text: as §1
as §2, with “an ATGA” for “a GCAA”, “220)” for “267)”

[12] = target: T12, LOX 3-4m.1506 (artificial (I-CreI derived))
T12 chain: T1 chain with C50T, R71G, Q72K, V73A, K139R, S180P, C241I, V250A, T263R, C264I
Text: as §1
as §2, with “an ATGA” for “a GCAA”, “220)” for “267)”

B1: LOX 3-4 GCAA (dsDNA)
DNA 1: GTATAGCATGCAATATACGAAG
DNA 2: CTTCGTATATTGCATGCTATAC
For B1, the activity [1] was 8.9 % GFP, the activity [2] was 7.67 % GFP and the activity [3] was 8.14 % GFP. The activity [4] was 7.56 % GFP.

B2: LOX 3-4 ATAT (dsDNA)
DNA 1: GTATAGCATATATTATACGAAG
DNA 2: CTTCGTATAATATATGCTATAC
Binder B2 has an activity [5] of 13.8 % GFP, an activity [6] of 13.9 % GFP and an activity [7] of 14.9 % GFP. The activity [8] was 13.1 % GFP.

B3: LOX 3-4 ATGA (dsDNA)
DNA 1: GTATAGCATATGATATACGAAG
DNA 2: CTTCGTATATCATATGCTATAC
For B3, the activity [9] was 9.23 % GFP, the activity [10] was 8.37 % GFP and the activity [11] was 3.6 % GFP. For the same binder, the activity [12] was 8.2 % GFP.
